Source: PMC2690590, “Functional recombinant MHC class II molecules and high-throughput peptide-binding assays” (Immunome Research, 2009)

Tests used:
[1] = biological target: DRB1*0813: DRA*0101/DRB1*0813 (human); assay: AlphaScreen or HTRF; direct LOCI: α and biotinylated β chains refolded with peptide titration, 48 h at 18°C; streptavidin donor beads and anti-MHC-II antibody acceptor beads; half saturation (EC50) fitted to Y = Bmax*X/(KD+X) and taken as approximate KD; pH as optimised for each MHC (DR2a at pH 6)
[2] = biological target: DR4 (DRA*0101/DRB1*0401), biotinylated, LOCI assay (human); assay: as above
[3] = biological target: DR2a (DRA*0101/DRB5*0101), biotinylated, direct LOCI assay at pH 6 (human); assay: as above
[4] = biological target: I-E^d (mouse MHC class II) (mouse) (UniProt P01904); assay: as above
[5] = biological target: DR1GrpE: DR1 α chain 1–181 and β chain 1–190 fused C-terminally to GrpE, not biotinylated (human); assay: AlphaScreen or HTRF
[6] = biological target: DRB3*0301: DRA*0101/DRB3*0301 (human); assay: AlphaScreen or HTRF; direct LOCI: α and biotinylated β chains refolded with peptide titration, 48 h at 18°C; streptavidin donor beads and anti-MHC-II antibody acceptor beads; half saturation (EC50) fitted to Y = Bmax*X/(KD+X) and taken as approximate KD; pH as optimised for each MHC (DR2a at pH 6)
[7] = biological target: DR3: DRA*0101/DRB1*0301 (human); assay: as above
[8] = biological target: DR2a (DRA*0101/DRB5*0101) with non-biotinylated β chain, competitive LOCI assay (human); assay: AlphaScreen or HTRF
[9] = biological target: DP401: DPA1*0103/DPB1*0401 (human); assay: AlphaScreen or HTRF; direct LOCI: α and biotinylated β chains refolded with peptide titration, 48 h at 18°C; streptavidin donor beads and anti-MHC-II antibody acceptor beads; half saturation (EC50) fitted to Y = Bmax*X/(KD+X) and taken as approximate KD; pH as optimised for each MHC (DR2a at pH 6)

Binder	Kd [1] [nM]	Kd [2] [nM]	Kd [3] [nM]	Kd [4] [nM]	IC50 [5] [nM]	Kd [6] [nM]	Kd [7] [nM]	IC50 [8] [nM]	Kd [9] [nM]
YLFFYRKSV [TERT572Y peptide …]	95	1590	2650	322	4290				
IQMLKNGKKIPKVEMS [Murine β2m peptide …]	73		6	117	1230	70	21	3	
FLYGALLLA [MBP peptide …]					3920				34
